Data published in PMC8699464, “Cyclic Tetra-Adenylate (cA4) Recognition by Csa3; Implications for an Integrated Class 1 CRISPR-Cas Immune Response in Saccharolobus solfataricus” (Biomolecules, 2021).

Experiments:
Csa3a (SsCsa3a) [1] = biological target: T1, Csa3a (SsCsa3a) (Saccharolobus solfataricus P2, UniProt Q97Y88 1-237); assay: fluorescence polarization; conditions: 37 C 30 min, 18 nM DNA (5.2 ng/uL), +/-10 uM cA4, 2% agarose, FP: 20 mM SPG, 50 mM NaCl, pH 6.5, 50 C (also 21 C), 30 nM DNA, ITC: 10 mM Tris
T1 sequence: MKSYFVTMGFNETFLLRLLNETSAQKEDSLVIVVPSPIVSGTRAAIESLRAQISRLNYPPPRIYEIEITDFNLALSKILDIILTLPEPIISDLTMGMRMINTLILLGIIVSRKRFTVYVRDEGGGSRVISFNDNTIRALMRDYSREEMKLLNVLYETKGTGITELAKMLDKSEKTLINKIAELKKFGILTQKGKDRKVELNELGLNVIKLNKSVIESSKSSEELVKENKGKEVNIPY

Csa3a (SsCsa3a, Sso1445) = biological target: T2, Csa3a (SsCsa3a, Sso1445) (Saccharolobus solfataricus, UniProt Q97Y88); assay: ITC at […] °C; co-crystal structure at […] Å; assay type: binding
T2 construct: gene csa3; 6×His-tagged Sso1445 (pEXP14-6×His-Sso1445), homodimer; crystal model lacks residues 213–237 of both chains and 160–162, 174–176, 192–195 of chain A
T2 sequence (Q97Y88 1-237): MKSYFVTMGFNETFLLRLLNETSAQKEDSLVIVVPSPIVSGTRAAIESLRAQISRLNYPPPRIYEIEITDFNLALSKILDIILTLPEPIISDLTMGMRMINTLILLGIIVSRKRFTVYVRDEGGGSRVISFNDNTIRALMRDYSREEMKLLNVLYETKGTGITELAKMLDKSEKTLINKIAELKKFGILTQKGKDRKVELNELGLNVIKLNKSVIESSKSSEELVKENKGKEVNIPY

[2] = biological target: the molecule itself; assay: crystal structure; Csa3a co-crystallised with cA4 by hanging drop vapor diffusion at 22 °C; 2.45 Å; space group P212121; one Csa3a dimer in the asymmetric unit
Csa3a (SsCsa3a) [3] = biological target: T1, Csa3a (SsCsa3a); assay: ITC; 25 C; 250-500 uM cA4; n about 0.6 per dimer; endothermic; EMSA: TAE, 37 C 30 min, 18 nM DNA (5.2 ng/uL), +/-10 uM cA4, 2% agarose; FP: 20 mM SPG, 50 mM NaCl, pH 6.5, 50 C (also 21 C), 30 nM DNA; ITC: 10 mM Tris, 50 mM; conditions: protein: recombinant; tags: 6xHis (pEXP14-6xHis-Sso1445); chain copies: 2; cyclic, single copy per Csa3a dimer

Molecule 75 bp I-A (2) cas4a CAPPa fragment has a Kd (Csa3a (SsCsa3a) [1]; 10 uM cA4, 50 C, cooperative, EMSA: TAE) of 210 nM and a Kd (Csa3a (SsCsa3a) [1]; no cA4, 50 C, cooperative, Hill about 2, EMSA: TAE) of 270 nM.

20 bp CAPPa, I-A (2) cas4a promoter was tested, and the Kd (Csa3a (SsCsa3a) [1]; 10 uM cA4, 50 C, EMSA: TAE) was 2700 nM and the Kd (Csa3a (SsCsa3a) [1]; no cA4, 50 C, non-cooperative, EMSA: TAE) was 3200 nM.

Work on `Nc1ncnc2c1ncn2[C@@H]1O[C@@H]2COP(=O)(O)O[C@H]3[C@@H](O)[C@H](n4cnc5c(N)ncnc54)O[C@@H]3COP(=O)(O)O[C@H]3[C@@H](O)[C@H](n4cnc5c(N)ncnc54)O[C@@H]3COP(=O)(O)O[C@H]3[C@@H](O)[C@H](n4cnc5c(N)ncnc54)O[C@@H]3COP(=O)(O)O[C@H]2[C@H]1O` [cA4, cyclic tetra-adenylate] yielded a Kd (Csa3a (SsCsa3a, Sso1445)) of 1000 to 1500 nM.

B1: Saccharolobus solfataricus Csa3a (Sso1445) (natural protein, UniProt Q97Y88 1-237, looked up)
chain: MKSYFVTMGFNETFLLRLLNETSAQKEDSLVIVVPSPIVSGTRAAIESLRAQISRLNYPPPRIYEIEITDFNLALSKILDIILTLPEPIISDLTMGMRMINTLILLGIIVSRKRFTVYVRDEGGGSRVISFNDNTIRALMRDYSREEMKLLNVLYETKGTGITELAKMLDKSEKTLINKIAELKKFGILTQKGKDRKVELNELGLNVIKLNKSVIESSKSSEELVKENKGKEVNIPY
notes: Csa3a (Sso1445) of Saccharolobus (Sulfolobus) solfataricus P2, with an N-terminal CARF domain and a C-terminal winged helix-turn-helix domain; also called SsCsa3a; SsCsa3; source: E. coli BL21 (DE3)-pRIL, purified (heat step at 60 °C, Ni-NTA, Superdex 75)
B1: binds [2].

B2: cA4 (cyclic tetra-adenylate) (ssRNA)
RNA: AAAA
modifications: cyclic, 3'-5' linked?
Molecule B2 has a Kd (Csa3a (SsCsa3a) [3]) of 1220 nM.
